Assay results taken from patent US20220227882A1 (TRUSTEES OF TUFTS COLLEGE, published 2022).
Numbering of substitutions follows the chain as printed.

Columns and labels:
[1] = target: T1, R482A (Homo sapiens, UniProt P78325); experiment: high-throughput flow cytometry, HEK293 cells with mutant ADAM8, high stringency; range in parentheses
T1 construct: expressed on HEK293 cells; also called human ADAM8 point mutant R482A
T1 sequence (ADAM8, looked up): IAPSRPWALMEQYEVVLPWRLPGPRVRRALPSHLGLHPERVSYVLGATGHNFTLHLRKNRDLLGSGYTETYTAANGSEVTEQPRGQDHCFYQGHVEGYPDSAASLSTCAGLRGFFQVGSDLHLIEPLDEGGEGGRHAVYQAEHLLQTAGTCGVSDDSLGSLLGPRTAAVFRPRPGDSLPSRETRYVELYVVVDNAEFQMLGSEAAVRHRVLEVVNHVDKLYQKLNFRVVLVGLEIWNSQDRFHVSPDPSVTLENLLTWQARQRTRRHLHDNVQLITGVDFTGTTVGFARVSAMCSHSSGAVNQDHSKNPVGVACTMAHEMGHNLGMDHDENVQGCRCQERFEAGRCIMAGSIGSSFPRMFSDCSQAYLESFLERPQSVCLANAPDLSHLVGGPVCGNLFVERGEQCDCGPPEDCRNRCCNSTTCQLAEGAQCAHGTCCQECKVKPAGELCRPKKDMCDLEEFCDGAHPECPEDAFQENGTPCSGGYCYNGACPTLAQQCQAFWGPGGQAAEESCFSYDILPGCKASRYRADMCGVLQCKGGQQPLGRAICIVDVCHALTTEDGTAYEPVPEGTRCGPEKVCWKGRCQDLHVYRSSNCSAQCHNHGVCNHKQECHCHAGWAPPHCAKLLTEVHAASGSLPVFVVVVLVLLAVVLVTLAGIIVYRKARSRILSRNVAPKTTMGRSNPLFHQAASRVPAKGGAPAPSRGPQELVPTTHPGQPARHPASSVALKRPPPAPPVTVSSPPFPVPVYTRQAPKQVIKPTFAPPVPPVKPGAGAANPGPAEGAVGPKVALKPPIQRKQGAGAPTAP
Procedure: (§1) A variety of experimental parameters were optimized for high-throughput flow cytometry including blocking buffer, and primary and secondary antibody concentrations, to identify the optimal conditions for screening. Through these studies ADP2 and ADP13 were determined to be high affinity binding antibodies.
(§2) Thus, for these studies antigen-binding fragments (Fabs) of ADP2 and ADP13, which bind with lower affinity than the full antibody, were generated. In addition, higher binding stringency conditions were tested, such as increased pH, salinity, and temperature, and/or increased washing, to weaken binding sufficiently to allow identification of critical binding residues in flow cytometry. The final experimental flow cytometry conditions were: primary antibody incubation with ADP2 Fab (0.50 μg/ml), ADP13 Fab (5.00 μg/ml) and Control Ab (0.16 μg/ml) for 60 minutes in flow cytometry buffer containing 10% goat serum in PBS (Ca²⁺ and Mg²⁺ free). […] Samples were washed three times after primary antibody incubation and twice after secondary antibody incubation with PBS (Ca²⁺ and Mg′ free). Next, HEK293 cells expressing WT or mutated ADAM8 proteins or EV DNA were incubated with ADP2 or ADP13 Fabs or Control Ab at their optimal concentrations. Fab binding was detected using Alexa Fluor 488-conjugated secondary antibodies and mean cellular fluorescence determined using the Intellicyt iQue flow cytometry platform. […] This counter-screen strategy facilitates the exclusion of mutants that are locally misfolded or that have an expression defect. Binding of each test Fab to each mutant clone in the alanine scanning library was determined, in duplicate, by high-throughput flow cytometry.

[2] = target: T2, Q447A (Homo sapiens, UniProt P78325); experiment: as above
T2 construct: expressed on HEK293 cells; also called human ADAM8 point mutant Q447A
T2 sequence (ADAM8, looked up): T1 sequence (ADAM8, looked up) with Q431A, A466R
Procedure: as §1, §2

Binding Reactivity (% WT) [1]: 113 % WT | Binding Reactivity (% WT) [2]: 46.5 % WT
B1: ADP2 Fab (Fab, V domains shown)
VH: EVKLVESGGGLVQPGGSLSLSCAASGFSFPDYYMSWVRQPPGKALEWLGFIRDSANGYTTEYIASVKGRFTFSRDNSQSILYLQMNALRAEDSATYYCARYSRYYGMDYWGQGTSVTVSS
VL: SIVMTQTPKILLVSAGDRVTITCKASQTVNYDVAWYQQKPGQSPKPVIYFASNRYTGVPDRFTGSGFGTDFTFTISTVQAEDLAVYFCQQDYSAPWTFGGGTKLEIK
